Assay results taken from the supplement of paper PMC10724198.
± gives the standard deviation of the averaged measurements.

What was measured:
[1] = test system: Saccharomyces cerevisiae; test: protein stability index of tFT-peptide fusion (C-terminal peptide) (PSI (0-1 scale)); higher = more stable (slower turnover); conditions: genetic background: wild type; temperature: 30 C
[2] = test system: Saccharomyces cerevisiae; test: as above
Procedure: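 MPS profiling in S. cerevisiae of the tFT-X12 degron library: putative degron peptides plus stable controls, 12 aa, fused to the C-terminus of a sfGFP-mCherry timer. Cells are FACS-sorted into 8 mCherry/sfGFP bins and deep-sequenced. PSI runs from 0 (unstable) to 1 (stable). Backgrounds are wild type, das1Δ and doa10Δ at 30 °C, and wild type, das1Δ, cdc34-1 and cdc53-1 at 37 °C; 2-3 technical replicates each.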

[3] = genetic background: cdc34-1, temperature: 37 C
[4] = genetic background: cdc53-1, temperature: 37 C
[5] = genetic background: das1 deletion, temperature: 30 C
[6] = genetic background: das1 deletion, temperature: 37 C
[7] = genetic background: doa10 deletion, temperature: 30 C
[8] = genetic background: wild type, temperature: 30 C
[9] = genetic background: wild type, temperature: 37 C
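Also: PSI is a weighted mean of sequencing reads over stability bins, variants kept only with over 10 reads, mCherry proximal and sfGFP distal, peptide attached via GGGS linker.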

Sequence	protein stability index [1]	protein stability index [2, 3]	protein stability index [2, 4]	protein stability index [2, 5]	protein stability index [2, 6]	protein stability index [2, 7]	protein stability index [2, 8]	protein stability index [2, 9]
SPTRTCTAIRTP	0.712 ± 0.034	0.689 ± 0.068	0.7392 ± 0.0058	0.666 ± 0.022	0.708 ± 0.0022	0.683 ± 0.057	0.676 ± 0.027	0.671 ± 0.0068
SRFFSSSFYRLC	0.324 ± 0.046	0.675 ± 0.036	0.7576 ± 0.0075	0.661 ± 0.012	0.777 ± 0.018	0.176 ± 0.0056	0.198 ± 0.036	0.485 ± 0.042
SRGGVFYVRIHS	0.455 ± 0.051	0.647 ± 0.043	0.709 ± 0.014	0.628 ± 0.016	0.697 ± 0.018	0.239 ± 0.0035	0.279 ± 0.029	0.4917 ± 0.0011
SRLLGVKVSLVC	0.472 ± 0.032	0.518 ± 0.025	0.567 ± 0.033	0.419 ± 0.031	0.581 ± 0.0085	0.35 ± 0.0097	0.384 ± 0.031	0.5364 ± 0.0038
SRVSEFVIPLGR	0.719 ± 0.033	0.7038 ± 0.0057	0.7389 ± 0.0046	0.622 ± 0.018	0.7555 ± 0.0021	0.644 ± 0.023	0.6473 ± 0.0059	0.71 ± 0.016
SSAFFFLLFSLA	0.366 ± 0.013	0.4227 ± 0.003	0.484 ± 0.006	0.342 ± 0.031	0.511 ± 0.009	0.244 ± 0.0068	0.266 ± 0.037	0.446 ± 0.0051
SSGIGLFVWVYG	0.421 ± 0.014	0.465 ± 0.0058	0.456 ± 0.015	0.282 ± 0.035	0.514 ± 0.013	0.226 ± 0.0051	0.268 ± 0.035	0.5023 ± 0.0012
SSLLLLCCLLVG	0.332 ± 0.01	0.365 ± 0.029	0.427 ± 0.015	0.277 ± 0.032	0.437 ± 0.01	0.248 ± 0.013	0.263 ± 0.03	0.403 ± 0.014
SSVCVLVSCVLG	0.4818 ± 0.0031	0.462 ± 0.019	0.5241 ± 0.0032	0.375 ± 0.037	0.5353 ± 0.0013	0.363 ± 0.013	0.382 ± 0.022	0.5117 ± 0.00052
SVGWGFWARFIG	0.379 ± 0.069	0.686 ± 0.057	0.756 ± 0.013	0.665 ± 0.014	0.772 ± 0.0086	0.215 ± 0.016	0.253 ± 0.017	0.434 ± 0.018
